Test results as given in publication PMC3596305, “Escherichia coli NemA Is an Efficient Chromate Reductase That Can Be Biologically Immobilized to Provide a Cell Free System for Remediation of Hexavalent Chromium” (PLoS ONE, 2013).

B1: ChrR_Pa (Pseudomonas aeruginosa PAO1) (protein)
chain: MSDDIKVLGISGSLRSGSYNSAALQEAIGLVPPGMSIELADISGIPLYNEDVYALGFPPAVERFREQIRAADALLFATPEYNYSMAGVLKNAIDWASRPPEQPFSGKPAAILGASAGRFGTARAQYHLRQTLVFLDVHPLNKPEVMISSAQNAFDAQGRLLDDKARELIQQQLQALQLWVRRLRG
B2: MdaB_Ec (Escherichia coli K-12) (protein)
chain: SNILIINGAKKFAHSNGQLNDTLTEVADGTLRDLGHDVRIVRADSDYDVKAEVQNFLWADVVIWQMPGWWMGAPWTVKKYIDDVFTEGHGTLYASDGRTRKDPSKKYGSGGLVQGKKYMLSLTWNAPMEAFTEKDQFFHGVGVDGVYLPFHKANQFLGMEPLPTFIANDVIKMPDVPRYTEEYRKHLVEIFG
B3: NfsB_Vv (Vibrio vulnificus YJ016) (protein)
chain: MTIVQAAQSRYSTKAFDASRKLPEEKVAAVKELIRMSASSVNSQPWHFIVASSEEGKARIAKATQGGFAFNERKILDASHVVVFCAKTAIDEAYLLDLLESEDKDGRFADVEAKNGMHAGRSFFVNMHRFDLKDAHHWMEKQVYLNVGTLLLGASAMEIDAVPIEGFDAKVLDEEFGLREKGFTSVVIVPLGYHSEDDFNAKLPKSRWSAETVFTEI
B4: Frp_Vh1 (Vibrio harveyi) (protein)
chain: MNNTIETILAHRSIRKFTAVPITDEQRQTIIQAGLAASSSSMLQVVSIVRVTDSEKRNELAQFAGNQAYVESAAEFLVFCIDYQRHATINPDVQADFTELTLIGAVDSGIMAQNCLLAAESMGLGGVYIGGLRNSAAQVDELLGLPENSAVLFGMCLGHPDQNPEVKPRLPAHVVVHENQYQELNLDDIQSYDQTMQAYYASRTSNQKLSTWSQEVTGKLAGESRPHILPYLNSKGLAKR
B5: NfsA_Kp (Klebsiella pneumoniae) (protein)
chain: MTPTIELLRSHRSIRHFTDAPVSDEQRAEIIASAQAASTSSFLQCTSIIRITDPALRERLVPLTGGQQHVAQAAEFWVFCADFNRHLQICPQAQLGLAEQLLIGVVDTALLAQNALTAAESLGLGGVYIGGLRNSIEAVTELLELPQHVLPLFGLCLGWPADNPDIKPRMPAAMLVHENRYQPLDNALLAEYDEQLAHYYLSRGSNARRDTWSDHIRRTIVKESRPFILDYLHKQGWATR
B6: NfsB_Kp (Klebsiella pneumoniae subsp. pneumoniae MGH 78578) (protein)
chain: MDIVSVALKRYSTKAFDATKKLTAGEAEQLKTLLQYSPSSTNSQPWHFIVASTDEGKARVAKAASGTYVFNERKILDASHVVVFCAKTAMDDAWLQRVVDQEEADGRFATPDAKAANHKGRTFFADMHRKELKDDDQWMAKQVYLNVGNFLLGVAAMGLDAVPIEGVDFAILDEEFDLKAQGYTSLVVVPVGHHSAEDFNATLPKSRLPQSTTITEI
B7: YdgI_Bs (Bacillus subtilis subsp. subtilis str. 168) (protein)
chain: MIKTNDFMEIMKGRRSIRNYDPAVKISKEEMTEILEEATTAPSSVNAQPWRFLVIDSPEGKEKLAPLASFNQTQVTTSSAVIAVFADMNNADYLEEIYSKAVELGYMPQEVKDRQIAALTAHFEKLPAQVNRETILIDGGLVSMQLMLTARAHGYDTNPIGGYDKENIAETFGLDKERYVPVMLLSIGKAADEGYASYRLPIDTIAEWK
B8: YcnD_Bs (Bacillus subtilis subsp. subtilis str. 168) (protein)
chain: MNEVIKSLTDHRSIRSYTDEPVAQEQLDQIIEAVQSAPSSINGQQVTVITVQDKERKKKISELAGGQPWIDQAPVFLLFCADFNRAKIALEDLHDFKMEITNGLESVLVGAVDAGIALGTATAAAESLGLGTVPIGAVRGNPQELIELLELPKYVFPLSGLVIGHPADRSAKKPRLPQEAVNHQETYLNQDELTSHIQAYDEQMSEYMNKRTNGKETRNWSQSIASYYERLYYPHIREMLEKQGFKVEK
B9: NemA_Ec (Escherichia coli K-12) (protein)
chain: MSSEKLYSPLKVGAITAANRIFMAPLTRLRSIEPGDIPTPLMAEYYRQRASAGLIISEATQISAQAKGYAGAPGIHSPEQIAAWKKITAGVHAENGHMAVQLWHTGRISHASLQPGGQAPVAPSALSAGTRTSLRDENGQAIRVETSMPRALELEEIPGIVNDFRQAIANAREAGFDLVELHSAHGYLLHQFLSPSSNHRTDQYGGSVENRARLVLEVVDAGIEEWGADRIGIRVSPIGTFQNTDNGPNEEADALYLIEQLGKRGIAYLHMSEPDWAGGEPYTDAFREKVRARFHGPIIGAGAYTVEKAETLIGKGLIDAVAFGRDWIANPDLVARLQRKAELNPQRAESFYGGGAEGYTDYPTL
notes: free enzyme (not PhaC fusion)
B10: AzoR_Ec (Escherichia coli K-12) (protein)
chain: SKVLVLKSSILAGYSQSNQLSDYFVEQWREKHSADEITVRDLAANPIPVLDGELVGALRPSDAPLTPRQQEALALSDELIAELKAHDVIVIAAPMYNFNISTQLKNYFDLVARAGVTFRYTENGPEGLVTGKKAIVITSRGGIHKDGPTDLVTPYLSTFLGFIGITDVKFVFAEGIAYGPEMAAKAQSDAKAAIDSIVSA

substrate: [O]=[Cr](=[O])([OH])[OH]; test: purified protein; conditions: 1 mM NADH, 50 mM Tris-Cl pH 7.0, 22°C

Protein | Km [µM] | kcat [s⁻¹] | kcat/Km [M⁻¹ s⁻¹]
B1 | 1300 ± 100 | 1.5 | 1100
B2 | 170 ± 120 | 0.2 | 1100
B3 | 2200 | 0.8 | 360
B4 | 3.8 ± 0.5 | 0.32 | 84000
B5 | 1.7 ± 1.0 | 0.12 | 69000
B6 | 47 ± 4 | 0.37 | 7800
B7 | 63 ± 1 | 0.48 | 7700
B8 | 73 ± 2 | 0.37 | 5000

same assay, conditions: 1 mM NADH, 50 mM Tris-Cl pH 7.0, 22°C, free enzyme

Protein | Km [µM] | kcat [s⁻¹] | kcat/Km [M⁻¹ s⁻¹]
B9 | 16 ± 9 | 1 | 110000

substrate: [O]=[Cr](=[O])([OH])[OH]; test: cells, lysate or membranes named; conditions: 1 mM NADH, 50 mM Tris-Cl pH 7.0, 22°C, no lysate or lawsone added

Protein | Km [µM] | kcat [s⁻¹] | kcat/Km [M⁻¹ s⁻¹]
B10 | 380 | 0.03 | 87

substrate: NC(=O)C1=CN([C@@H]2O[C@H](COP(=O)(O)OP(=O)(O)OC[C@H]3O[C@@H](n4cnc5c(N)ncnc54)[C@H](O)[C@@H]3O)[C@@H](O)[C@H]2O)C=CC1; test: diphenylcarbazide Cr(VI) assay, Lineweaver-Burk; format: biochemical, Escherichia coli; conditions: 150 µM Cr(VI), 22°C, pH 7.0, free enzyme, varied: cofactor

Protein | Km [µM]
B9 | 450 ± 30
